Test results from US20030203464.

Molecular target: Rac1 (UniProt P63000)

85 kD Tiam-1
GEF activity (32P-GTP bound to the GTPase, filter assay), with ascorbyl stearate: ascorbyl stearate (AS) stimulated the rate of Tiam-1-mediated nucleotide exchange on Rac 1 | GEF activity (32P-GTP bound to the GTPase, filter assay), without lipid: this truncation alone, at various concentrations, exhibited no GEF activity towards Rac 1

106 kD Tiam-1
GEF activity (32P-GTP bound to the GTPase, filter assay), with ascorbyl stearate: Other truncations of Tiam-1, all containing the DH and PH domains (FIG. 3), also exhibited AS stimulated GEF activity on Rac 1

66 kD Tiam-1
GEF activity (32P-GTP bound to the GTPase, filter assay), with ascorbyl stearate: Other truncations of Tiam-1, all containing the DH and PH domains (FIG. 3), also exhibited AS stimulated GEF activity on Rac 1

135 kD Tiam-1
GEF activity (32P-GTP bound to the GTPase, filter assay), with and without ascorbyl stearate: shows weak GEF activity towards Rac in the absence of AS, but is still greatly stimulated by AS
